Measurements published in the DeepSol protein solubility set.

assay: soluble on expression in E. coli; label from the status in PepcDB or PDB records

| Sequence | soluble on expression in E. coli |
| --- | --- |
| SEQTEVMKPETLEDLIKTLHQIFQSDSINVEEVQNLMESYQSNPQDWMKFAKFDQYRYTRNLVDEGNGKFNLMILCWGEGHGSSIHDHTDSHCFLKLLQGQLKETLFDWPDRKLQSGMKPRGQSVLQENQCAYINDSLGLHRVENVSHTEPAVSLHLYSPPFQSCRTFDQRTGHHNTVKMTFWSKYGERTPYELSVSQENN | soluble |
| SERLTSPPRLMIVSDLDETMVDHHKDPENLALLRFNSLWEDAYRHDSLLVFSTGRAQTMYKKLRKEKPLLTPDVIITSVGTEIAYGNSMVPDDNWVEILNKKWDRGIVQEETSKFPELTLQGETEQRPHKLSFNIDKSKVKAVTKELSPRLEKRGVDVKFIFSGGNAFDVLAKGGGKGQALAYLLKKLKTEGKLPINTLACGDSGNDTELFTIPNVYGVMVSNAQEELLEWYAENAKDNANIIHASERCAGGITQAIGHFKLGPNLSPRDVSDFLECKADNVNPGHEVVKFFLFYERWRRGEVENCTTYTSSLKASCHPSGVFVHPSGAEKSLRDTIDELGKYYGDKKGKKFRVWTDQVLATDTTPGTWIVKLDKWEQTGDERKCCTTTVKFTSKEGEGFVWEHVQQIWSEETEIKDDSNWII | not soluble |
| SESQEEIIHNIARHLAQIGDEMDHNIQPTLVRQL | soluble |
| SFAAEITLTTPDNFALKADYYPSKNSVKPANNRAVLMLHQCNYNRTMYNNIGAQLAQQSIHALSLDFRGFGESISSEFNVADVRKLPQAERGKAWSNMSSHWPEDVQLAFDYLKEKVGNNGKVGIIGASCGGSQAINLAEKENISAISFFSSSQRDENIARYGKTLVDTPTLIIASEDDGRTFTSAQQLFSTAKNPSSKMISYKGSMHGYPLLASDKALETTIVTWFSNEL | not soluble |
| SFELPALPYAKDALAPHISAETIEYHYGKHHQTYVTNLNNLIKGTAFEGKSLEEIIRSSEGGVFNNAAEVWNHTFYWNCLAPNAGGEPTGKVAEAIAASFGSFADFKAQFTDAAIKNFGSGWTWLVKNSDGKLAIVSTSNAGTPLTTDATPLLTVDVWEHAYYIDYRNARPGYLEHFWALVNWEFVAKNLAA | soluble |
| SFGVIQKEERFNEVFLNYFKENKIEIAHAITKLFPFLESLRDHSFITDKIYADSYEACRNSVPIVKVVYNVLSHLERLSDSSFLWALFNRVNLKEYPALREIHKSLGTELQDRYSPQKCKQEEQKLATVHPSYEQGTNLCTHEKWAQPCFVKQDNLQEPEIQQNQVDEIIVISSESSECSDEDEEDQALGTGLRRQMNKEAEDSAPHRRSRT | soluble |
| SFRRKLTALEYHNPTGFDCKDETEFRNFIVWLEDQKIRHYKIEDRGNLRNIPSSDWPKYFEKYLQDVNCPFSVQERQETVDWLLGLAVRFEYGDNVEKYRNCKPVTETNDVQKSADPLINLDSNNPDFKAGVLALANLLKIQRHDDYLVMLKAIKILVQERLTPDAIAKASQAKEGLPVTLDKHILGFDTGDATLNEAAQVLRLLHIEELRELQTKINEAIVAVQAIIADPKTDHRLGKVGR | soluble |
| SGEIKVSPDYNWFRSTVPLKKIIVDDDDSKIWSLYDAGPRSIRCPLIFLPPVSGTADVFFQQILALTGWGYRVIALQYPVYWDHLEFCDGFRKLLDHLQLDKVHLFGASLGGFLAQKFAEYTHKSPRVHSLILCNAFSDTSIFNQTWTANSFWLMPAFMLKKIVLGNFSSGPVDPMMADAIDFMVDRLESLGQSELASRLTLNCQNSYVEPHKIRDIPVTIMDIHLLQFHGTKYAAIDPSVVSAEELDVQKGQLDLSQEEP | soluble |
| SGIMNIILQDNVQEIEGVVVTGYQQIKNRVFTGAAASVKLDEIKLNGVSDVSRMLEGRIAGLSIQNVTGSFGAAPRINIRGGASIMGNVQPLWVIDGAVYEDLVSLTLDQLASGDAVTLISSAVAGLNASDIEDIQVLKDASATSIYGARALNGVIVITTRSGKRNA | not soluble |
| SGPWANICAGKSSNEIRTCDRHGCGQYSAQRSQRPHQGVDVLCSAGSTVYAPFTGMIVGQEKPYQNKNAINNGVRISGRGFCVKMFYIKPIKYKGPIKKGEKLGTLLPLQKVYPGIQSHVHIENCDSSDPTAYL | soluble |
| SGRARRAEQDARAVELGLQLVGDNLQVLHAGNPAEPALRAYLGMGLSELHVLEQPDGADALAALTDYIRDSGAQMVLAGSQAETGEGSGMLPFLLAEGLGWPLVTGLAEVESLSNGTALVLQALPRGQRRRLKVRLPFLATVDNAAPAPRQSAYGPAQRGILDVDKIETVIDDLFTAQSLQPAKPRPKRLKVIKAKSGADRMKAATAKASGGSGQVLKGLSPEQSAAAILKLLIDEGVV | not soluble |
| SGSAARQPLFSFGVIADVQYADISDGRSFLGVPRYYRNSILVLQRAVETWNQHGNLKFVINMGDIVDGFCPKDQSLAATKKLVHEFEKFNGPVYHMIGNHCLYNLPREELLPLLKIPGRDGNAYYDFSPTPEYRVVVLDGYDISAVGWPQEHPNTIAALKILEEKNPNTDKNSPAGLEDVARRFVKYNGGVGEKQLQWLDSVLQDASNSNQRVIVCGHVPMSPGVASKAALLWNFDEVMNIIHKYDSVKVCLSGHDHKGGYFVDSHGVHHRSLEAALECPPGTYSFGYIDVYDNKLSLVGTDRMQSTDFEN | soluble |
| SGTPNDQAVLQAIFNPDTPFGDVVGLDLEEAEEGDEDGVFPQAQLEHSKALELQGVRAAEAGDLHTALEKFGQAISLLPDRASAYNNRAQARRLQGDVAGALEDLERAVTLSGGRGRAARQSFVQSGLLARFQGRDDDARRDFEKAARLGSPFARRQLVLLNPYAALCNRMLADMMGQLRAPSNGR | soluble |
| SHSKLRIKKEIEPIVSALTFLSQGQSAALNEKGNFSEIKTALNETSHILEESNMMKEQWIRGVSHDLRNPLMLISGYTSQLEQQYGHGKQTEQIENQIQNMKEMISNLNLSYLLDNQKRHSKFSSLDLAVVLRSVIADILNNYETVILHFDLPTEAVLVKGDATLLERAFRNLLLNSIKHSGSNQIDLTYQLFDNKVIIIIADKGTITAQKIVELNQKSTNYESHGMGTVITKQIIKLHQGETVFSDNHPGLKVTIVLPVTDEF | not soluble |
| SIVADSECRAELKDYLRFAPGGVGDSGPGEEQRESRARRGPRGPSAFIPVEEVLREGAESLEQHLGLEALMSSGRVDNLAVVMGLHPDYFTSFWRLHYLLLHTDGPLASSWRHYIAIMAAARHQCSYLVGSHMAEFLQTGGDPEWLLGLHRAPEKLRKLSEINKLLAHRPWLITKEHIQALLKTGEHTWSLAELIQALVLLTHCHSLSSFVFGCGILPEGDADGSPAPQAPTPPSEQSSPPSRDPLNNSGGFESARDVEALMERMQQLQESLLRDEGTSQEEMESRFELEKSESLLVTPSADILEPSPHPDMLCFVEDPTFGYEDFTRRGAQAPPTFRAQDYTWEDHGYSLIQRLYPEGGQLLDEKFQAAYSLTYNTIAMHSGVDTSVLRRAIWNYIHCVFGIRYDDYDYGEVNQLLERNLKVYIKTVACYPEKTTRRMYNLFWRHFRHSEKVHVNLLLLEARMQAALLYALRAITRYMT | not soluble |
| SKDFMISAKGTFTYAKNQYMEIDEPDYEYAYMSQVGRPLNQYKGYIALGLFKDQEEIDNSPKQILTGVVQPGDIKYADLNNDGKIDGNDQTYIGNPELPQISYGLGVSIQYKKWDASIFFQGVGKRSIMLSDIHPFGGESYGVMQFVADNHWTEANPNPEAMYPRLTNGKNNNNNPNSTYWLRDGSYIRLKNVELGYSYKFLRAYISGQNLLTFSKFKLWDPELYTSNGLKYPTQIMGSIGLQFTF | not soluble |
| SKGIKSEEVKINNIAIEINKATKRDPGNCNLDNHIKPSPDSSLDNQMKLSCESAPDQNFSICSASEVETNPLENTAAASTLLSQAKIDEDRTFPGSAPNQQHSVLSDEASINRKNRDVPPNHSQLKHDSHLEITIPKSLKLKDSEKVDEKQLVIDAGHKRFGAVSCNICGMLYTASNPEDETQHLLFHNQFISAVKYVVLLINHHECGSEEEFITSLFLSMSNFRYTQRSLLPY | soluble |
| SKIADPAFLRRLGYKIEFKPLSLTDYQALWMSLAKDYQMTLVPEFFETLSQLHRDNDVAYFPCLPKDLLGISRDILVFEGKEKIVSSDILTRAWGLYFTVDE | soluble |
| SKMTYADGTPIANIKSDLIRTRINGDQMSPLLKKAIISTEDEYFEEHHGVVPKALVRALISDATGIGGSSGGSTLTQQLVKQQILTDETTFKRKANEILLALRIEKYFSKDEIVTTYLNVSPFGRNNKGENIAGVEEAAKGLFGKSAKDLNLPQAAFIAGLPQSPIVYTPYTNT | not soluble |
